The values below come from the supplement of paper PMC5998384.

Data set [1] deals with HeLa Kyoto. Put plainly: solubility change mitosis vs G1/S (difference of NP-40 vs SDS log2 ratios) (log2 ratio difference); higher = more soluble in mitosis.
The subject of data set [2] is HeLa Kyoto. Put plainly: solubility in G1/S (NP-40 vs SDS abundance) (log2 ratio); higher = more soluble. The conditions noted are these: cell cycle stage: G1/S.
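Wherever solubility change mitosis vs G1/S (difference of NP-40 vs SDS log2 ratios) is given: synchronized HeLa Kyoto cells (double thymidine block for G1/S, nocodazole release for mitosis), protein amounts in NP-40 versus SDS lysates quantified by mass spectrometry, three biological replicates.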
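Wherever solubility in G1/S (NP-40 vs SDS abundance) is given: HeLa Kyoto cells arrested at G1/S by double thymidine block, proteins quantified by TMT10plex mass spectrometry in mild NP-40 versus SDS extracts, three biological replicates.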

As for “METSSMLSSLNDECKSDNYIEPHYKEWYRVAIDILIEHGLEAYQEFLVQERVSDFLAEEEINYILKNVQKVAQSTAHGTDDSCDDTLSSGTYWPVESDVEAPNLDLGWPYVMPGLLGGTHIDLLFHPPRAHLLTIKETIRKMIKEARKVIALVMDIFTDVDIFKEIVEASTRGVSVYILLDESNFNHFLNMTEKQGCSVQRLRNIRVRTVKGQDYLSKTGAKFHGKMEQKFLLVDCQKVMYGSYSYMWSFEKAHLSMVQIITGQLVESFDEEFRTLYARSCVPSSFAQEESARVKHGKALWENGTYQHSVSSLASVSSQRNLFGRQDKIHKLDSSYFKNRGIYTLNEHDKYNIRSHGYKPHFVPNFNGPNAIRQFQPNQINENWKRHSYAGEQPETVPYLLLNRALNRTNNPPGNWKKPSDSLSVASSSREGYVSHHNTPAQSFANRLAQRKTTNLADRNSNVRRSFNGTDNHIRFLQQRMPTLEHTTKSFLRNWRIESYLNDHSEATPDSNGSALGDRFEGYDNPENLKANALYTHSRLRSSLVFKPTLPEQKEVNSCTTGSSNSTIIGSQGSETPKEVPDTPTNVQHLTDKPLPESIPKLPLQSEAPKMHTLQVPENHSVALNQTTNGHTESNNYIYKTLGVNKQTENLKNQQTENLLKRRSFPLFDNSKANLDPGNSKHYVYSTLTRNRVRQPEKPKEDLLKSSKSMHNVTHNLEEDEEEVTKRNSPSGTTTKSVSIAALLDVNKEESNKELASKKEVKGSPSFLKKGSQKLRSLLSLTPDKKENLSKNKAPAFYRLCSSSDTLVSEGEENQKPKKSDTKVDSSPRRKHSSSSNSQGSIHKSKEDVTVSPSQEINAPPDENKRTPSPGPVESKFLERAGDASAPRFNTEQIQYRDSREINAVVTPERRPTSSPRPTSSELLRSHSTDRRVYSRFEPFCKIESSIQPTSNMPNTSINRPEIKSATMGNSYGRSSPLLNYNTGVYRSYQPNENKFRGFMQKFGNFIHKNK [FAM83B]”, the “solubility change mitosis (log2)” value with HeLa Kyoto [1] came to 0.383. Moreover, the “solubility in G1/S (log2)” value in the data set on HeLa Kyoto [2] was -1.47.
On the same counts, the results for “MEVEAAEARSPAPGYKRSGRRYKCLSCTKTFPNAPRAARHAATHGPADCSEEVAEVKPKPETEAKAEEASGEKVSGSAAKPRPYACPLCPKAYKTAPELRSHGRSHTGEKPFPCPECGRRFMQPVCLRVHLASHAGELPFRCAHCPKAYGALSKLKIHQRGHTGERPYACADCGKSFADPSVFRKHRRTHAGLRPYSCERCGKAYAELKDLRNHERSHTGERPFLCSECGKSFSRSSSLTCHQRIHAAQKPYRCPACGKGFTQLSSYQSHERTHSGEKPFLCPRCGRMFSDPSSFRRHQRAHEGVKPYHCEKCGKDFRQPADLAMHRRVHTGDRPFKCLQCDKTFVASWDLKRHALVHSGQRPFRCEECGRAFAERASLTKHSRVHSGERPFHCNACGKSFVVSSSLRKHERTHRSSEAAGVPPAQELVVGLALPVGVAGESSAAPAAGAGLGDPPAGLLGLPPESGGVMATQWQVVGMTVEHVECQDAGVREAPGPLEGAGEAGGEEADEKPPQFVCRECKETFSTMTLLRRHERSHPELRPFPCTQCGKSFSDRAGLRKHSRTHSSVRPYTCPHCPKAFLSASDLRKHERTHPVPMGTPTPLEPLVALLGMPEEGPA [ZNF668]” are 0.453 and -0.985.
For “MEVEDSGGVVLTAYHSYARAQPPNAESRCAPRAAASHPLSRKSIPRCRRINRMLSNESLHPPAFSRSNSEASVDSASMEDFWREIESIKDSSMGGQEEPPPAEVTPVDEGELEAEWLQDVGLSTLISGDEEEDGKALLSTLTRTQAAAVQKRYHTYTQTMRKKDKQSIRDVRDIFGVSESPPRDTCGNHTNQLDGTKEERELPRVIKTSGSMPDDASLNSTTLSDASQDKEGSFAVPRSDSVAILETIPVLPVHSNGSPEPGQPVQNAISDDDFLEKNIPPEAEELSFEVSYSEMVTEALKRNKLKKSEIKKEDYVLTKFNVQKTRFGLTEAGDLSAEDMKKIRHLSLIELTAFFDAFGIQLKRNKTEKVKGRDNGIFGVPLTVLLDGDRKKDPGVKVPLVLQKFFEKVEESGLESEGIFRLSGCTAKVKQYREELDAKFNADKFKWDKMCHREAAVMLKAFFRELPTSLFPVEYIPAFISLMERGPHVKVQFQALHLMVMALPDANRDAAQALMTFFNKVIANESKNRMSLWNISTVMAPNLFFSRSKHSDYEELLLANTAAHIIRLMLKYQKILWKVPSFLITQVRRMNEATMLLKKQLPSVRKLLRRKTLERETASPKTSKVLQKSPSARRMSDVPEGVIRVHAPLLSKVSMAIQLNNQTKAKDILAKFQYENSHGSSECIKIQNQRLYEIGGNIGEHCLDPDAYILDVYRINPQAEWVIKPQQSS [ARHGAP28]”, in the data set on HeLa Kyoto [1], the “solubility change mitosis (log2)” value stood at 0.00445. Moreover, in the data set on HeLa Kyoto [2], the “solubility in G1/S (log2)” value came to 0.167.
Turning to “MFFYLSKKISIPNNVKLQCVSWNKEQGFIACGGEDGLLKVLKLETQTDDAKLRGLAAPSNLSMNQTLEGHSGSVQVVTWNEQYQKLTTSDENGLIIVWMLYKGSWIEEMINNRNKSVVRSMSWNADGQKICIVYEDGAVIVGSVDGNRIWGKDLKGIQLSHVTWSADSKVLLFGMANGEIHIYDNQGNFMIKMKLSCLVNVTGAISIAGIHWYHGTEGYVEPDCPCLAVCFDNGRCQIMRHENDQNPVLIDTGMYVVGIQWNHMGSVLAVAGFQKAAMQDKDVNIVQFYTPFGEHLGTLKVPGKEISALSWEGGGLKIALAVDSFIYFANIRPNYKWGYCSNTVVYAYTRPDRPEYCVVFWDTKNNEKYVKYVKGLISITTCGDFCILATKADENHPQEENEMETFGATFVLVLCNSIGTPLDPKYIDIVPLFVAMTKTHVIAASKEAFYTWQYRVAKKLTALEINQITRSRKEGRERIYHVDDTPSGSMDGVLDYSKTIQGTRDPICAITASDKILIVGRESGTIQRYSLPNVGLIQKYSLNCRAYQLSLNCNSSRLAIIDISGVLTFFDLDARVTDSTGQQVVGELLKLERRDVWDMKWAKDNPDLFAMMEKTRMYVFRNLDPEEPIQTSGYICNFEDLEIKSVLLDEILKDPEHPNKDYLINFEIRSLRDSRALIEKVGIKDASQFIEDNPHPRLWRLLAEAALQKLDLYTAEQAFVRCKDYQGIKFVKRLGKLLSESMKQAEVVGYFGRFEEAERTYLEMDRRDLAIGLRLKLGDWFRVLQLLKTGSGDADDSLLEQANNAIGDYFADRQKWLNAVQYYVQGRNQERLAECYYMLEDYEGLENLAISLPENHKLLPEIAQMFVRVGMCEQAVTAFLKCSQPKAAVDTCVHLNQWNKAVELAKNHSMKEIGSLLARYASHLLEKNKTLDAIELYRKANYFFDAAKLMFKIADEEAKKGSKPLRVKKLYVLSALLIEQYHEQMKNAQRGKVKGKSSEATSALAGLLEEEVLSTTDRFTDNAWRGAEAYHFFILAQRQLYEGCVDTALKTALHLKDYEDIIPPVEIYSLLALCACASRAFGTCSKAFIKLKSLETLSSEQKQQYEDLALEIFTKHTSKDNRKPELDSLMEGGEGKLPTCVATGSPITEYQFWMCSVCKHGVLAQEISHYSFCPLCHSPVG [WDR35]”, in the data set with HeLa Kyoto [1], the “solubility change mitosis (log2)” value was -0.105. Further, the “solubility in G1/S (log2)” value in the data set on HeLa Kyoto [2] is -0.261.
As for “MFPLKDAEMGAFTFFASALPHDVCGSNGLPLTPNSIKILGRFQILKTITHPRLCQYVDISRGKHERLVVVAEHCERSLEDLLRERKPVSCSTVLCIAFEVLQGLQYMNKHGIVHRALSPHNILLDRKGHIKLAKFGLYHMTAHGDDVDFPIGYPSYLAPEVIAQGIFKTTDHMPSKKPLPSGPKSDVWSLGIILFELCVGRKLFQSLDISERLKFLLTLDCVDDTLIVLAEEHGCLDIIKELPETVIDLLNKCLTFHPSKRPTPDQLMKDKVFSEVSPLYTPFTKPASLFSSSLRCADLTLPEDISQLCKDINNDYLAERSIEEVYYLWCLAGGDLEKELVNKEIIRSKPPICTLPNFLFEDGESFGQGRDRSSLLDDTTVTLSLCQLRNRLKDVGGEAFYPLLEDDQSNLPHSNSNNELSAAATLPLIIREKDTEYQLNRIILFDRLLKAYPYKKNQIWKEARVDIPPLMRGLTWAALLGVEGAIHAKYDAIDKDTPIPTDRQIEVDIPRCHQYDELLSSPEGHAKFRRVLKAWVVSHPDLVYWQGLDSLCAPFLYLNFNNEALAYACMSAFIPKYLYNFFLKDNSHVIQEYLTVFSQMIAFHDPELSNHLNEIGFIPDLYAIPWFLTMFTHVFPLHKIFHLWDTLLLGNSSFPFCIGVAILQQLRDRLLANGFNECILLFSDLPEIDIERCVRESINLFCWTPKSATYRQHAQPPKPSSDSSGGRSSAPYFSAECPDPPKTDLSRESIPLNDLKSEVSPRISAEDLIDLCELTVTGHFKTPSKKTKSSKPKLLVVDIRNSEDFIRGHISGSINIPFSAAFTAEGELTQGPYTAMLQNFKGKVIVIVGHVAKHTAEFAAHLVKMKYPRICILDGGINKIKPTGLLTIPSPQI [TBCK]”, the “solubility change mitosis (log2)” value in the data set on HeLa Kyoto [1] is -0.162. Moreover, in the data set on HeLa Kyoto [2], the “solubility in G1/S (log2)” value was -0.278.
In the same order, the values of “MFPVKVKVEKSELEMAKARNQLDAVLQCLLEKSHMDRERLDEEAGKTPSDTHNKDCSIAATGKRPSARFPHQRRKKRREMDDGLAEGGPQRSNTYVIKLFDRSVDLAQFSENTPLYPICRAWMRNSPSVRERECSPSSPLPPLPEDEEGSEVTNSKSRDVYKLPPPTPPGPPGDACRSRIPSPLQPEMQGTPDDEPSEPEPSPSTLIYRNMQRWKRIRQRWKEASHRNQLRYSESMKILREMYERQ [LIN37]” are 0.0692 and 0.591.
On to “MFRLLSWSLGRGFLRAAGRRCRGCSARLLPGLAGGPGPEVQVPPSRVAPHGRGPGLLPLLAALAWFSRPAAAEEEEQQGADGAAAEDGADEAEAEIIQLLKRAKLSIMKDEPEEAELILHDALRLAYQTDNKKAITYTYDLMANLAFIRGQLENAEQLFKATMSYLLGGGMKQEDNAIIEISLKLASIYAAQNRQEFAVAGYEFCISTLEEKIEREKELAEDIMSVEEKANTHLLLGMCLDACARYLLFSKQPSQAQRMYEKALQISEEIQGERHPQTIVLMSDLATTLDAQGRFDEAYIYMQRASDLARQINHPELHMVLSNLAAVLMHRERYTQAKEIYQEALKQAKLKKDEISVQHIREELAELSKKSRPLTNSVKL [TTC19]”, for which, in the data set with HeLa Kyoto [1], the “solubility change mitosis (log2)” value turned out to be 0.00456. In addition, the “solubility in G1/S (log2)” value in the data set on HeLa Kyoto [2] was 0.331.
Consider MGA, for which the “solubility change mitosis (log2)” value in the data set with HeLa Kyoto [1] was found to be 0.233. For the same substance, the “solubility in G1/S (log2)” value in the data set on HeLa Kyoto [2] was -0.38.
On the same counts, the results for “MGASSSSALARLGLPARPWPRWLGVAALGLAAVALGTVAWRRAWPRRRRRLQQVGTVAKLWIYPVKSCKGVPVSEAECTAMGLRSGNLRDRFWLVIKEDGHMVTARQEPRLVLISIIYENNCLIFRAPDMDQLVLPSKQPSSNKLHNCRIFGLDIKGRDCGNEAAKWFTNFLKTEAYRLVQFETNMKGRTSRKLLPTLDQNFQVAYPDYCPLLIMTDASLVDLNTRMEKKMKMENFRPNIVVTGCDAFEEDTWDELLIGSVEVKKVMACPRCILTTVDPDTGVIDRKQPLDTLKSYRLCDPSERELYKLSPLFGIYYSVEKIGSLRVGDPVYRMV [MARC2]” are 0.103 and -0.315.
In the same order, the values of “MGDDRPFVCNAPGCGQRFTNEDHLAVHKHKHEMTLKFGPARTDSVIIADQTPTPTRFLKNCEEVGLFNELASSFEHEFKKAADEDEKKAAAGPLDMSLPSTPDIKIKEEEPVEVDSSPPDSPASSPCSPPLKEKEVTPKPVLISTPTPTIVRPGSLPLHLGYDPLHPTLPSPTSVITQAPPSNRQMGSPTGSLPLVMHLANGQTMPVLPGPPVQMPSVISLARPVSMVPNIPGIPGPPVNSSGSISPSGHPIPSEAKMRLKATLTHQVSSINGGCGMVVGTASTMVTARPEQSQILIQHPDAPSPAQPQVSPAQPTPSTGGRRRRTVDEDPDERRQRFLERNRAAASRCRQKRKLWVSSLEKKAEELTSQNIQLSNEVTLLRNEVAQLKQLLLAHKDCPVTALQKKTQGYLESPKESSEPTGSPAPVIQHSSATAPSNGLSVRSAAEAVATSVLTQMASQRTELSMPIQSHVIMTPQSQSAGR [ATF7]” are 0.0933 and 0.504.
